According to patent US20240034757A1 (OXFORD UNIVERSITY INNOVATION, published 2024):

Columns and labels:
[1] = target: T1, CCL8_HUMAN (human, UniProt P80075 24-99); assay: cell-based or functional assay
T1 sequence (looked up): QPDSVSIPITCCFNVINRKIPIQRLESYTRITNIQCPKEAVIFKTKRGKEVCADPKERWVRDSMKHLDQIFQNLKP

[2] = target: T1, CCL8_HUMAN; assay: cell-based or functional assay; remark: listed apart in the source
[3] = target: T2, CCL3_HUMAN (human, UniProt P10147 24-92); assay: cell-based or functional assay
T2 sequence: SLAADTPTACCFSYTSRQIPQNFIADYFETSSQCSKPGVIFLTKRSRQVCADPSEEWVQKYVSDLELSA

[4] = target: CCL2-647 (human, UniProt P13500 24-99); assay: flow cytometry, inhibition of CCL2-647 binding to THP-1 cells
Sequence of CCL2-647 (P13500 24-99 limits assumed): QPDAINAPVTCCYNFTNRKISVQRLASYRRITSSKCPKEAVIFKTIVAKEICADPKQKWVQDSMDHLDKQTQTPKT

[5] = target: T3, CCL8-647 (human, UniProt P80075 24-99); assay: flow cytometry, inhibition of CCL8-647 binding to THP-1 cells
T3 sequence (looked up): T1 sequence (looked up)

B1: P672_RHIPU (other)
chain: VCEVSEQEGVGEDNATEDEDYEDFFKPVTCYFANSTVGPLRPPNCTVVCTNNTAWWNDTKSDGGHCYSEYRPEKRTHSREIYNCTIGVCGNGTCIANHTYADCW
IC50, CCL8 induced THP-1 cell migration [1]: 3 nM | IC50, THP1 cell migration [2]: 2.37 nM | IC50, THP1 cell migration [3]: 5.74 nM | IC50 [4]: 21 nM | IC50 [5]: 21 nM
